EP4714976A1

T1: FGFR4 (acro) (UniProt P22455)
T1 sequence (looked up): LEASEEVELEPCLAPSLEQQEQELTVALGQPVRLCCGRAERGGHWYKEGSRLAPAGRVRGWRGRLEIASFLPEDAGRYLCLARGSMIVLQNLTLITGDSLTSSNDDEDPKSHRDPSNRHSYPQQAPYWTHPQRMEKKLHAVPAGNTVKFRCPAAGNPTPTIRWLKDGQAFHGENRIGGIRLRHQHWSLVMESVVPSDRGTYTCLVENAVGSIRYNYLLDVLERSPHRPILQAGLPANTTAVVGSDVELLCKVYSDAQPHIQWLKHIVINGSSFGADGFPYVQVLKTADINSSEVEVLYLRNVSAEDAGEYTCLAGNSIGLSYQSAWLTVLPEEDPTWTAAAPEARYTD


Columns and labels:
[1] = molecular target: extracellular domain of the FGFR2b protein (NP_075259.4) (UniProt P21802); experiment: phage ELISA
Sequence of extracellular domain of the FGFR2b protein (NP_075259.4) (P21802 other isoform, or with tags, fused parts or gaps): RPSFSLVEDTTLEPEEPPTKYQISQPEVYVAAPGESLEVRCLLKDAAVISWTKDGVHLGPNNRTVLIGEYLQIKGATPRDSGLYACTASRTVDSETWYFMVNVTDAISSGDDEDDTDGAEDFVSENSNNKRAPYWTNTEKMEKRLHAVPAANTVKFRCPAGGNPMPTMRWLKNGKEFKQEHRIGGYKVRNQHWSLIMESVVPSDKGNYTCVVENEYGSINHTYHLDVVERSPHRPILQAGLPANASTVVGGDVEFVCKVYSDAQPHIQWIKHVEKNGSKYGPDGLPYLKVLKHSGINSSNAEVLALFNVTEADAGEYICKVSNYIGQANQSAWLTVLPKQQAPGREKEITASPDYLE

[2] = molecular target: extracellular domain of FGFR2c protein (Example 1) (UniProt P21802); experiment: phage ELISA
Sequence of extracellular domain of FGFR2c protein (Example 1) (P21802 22-377): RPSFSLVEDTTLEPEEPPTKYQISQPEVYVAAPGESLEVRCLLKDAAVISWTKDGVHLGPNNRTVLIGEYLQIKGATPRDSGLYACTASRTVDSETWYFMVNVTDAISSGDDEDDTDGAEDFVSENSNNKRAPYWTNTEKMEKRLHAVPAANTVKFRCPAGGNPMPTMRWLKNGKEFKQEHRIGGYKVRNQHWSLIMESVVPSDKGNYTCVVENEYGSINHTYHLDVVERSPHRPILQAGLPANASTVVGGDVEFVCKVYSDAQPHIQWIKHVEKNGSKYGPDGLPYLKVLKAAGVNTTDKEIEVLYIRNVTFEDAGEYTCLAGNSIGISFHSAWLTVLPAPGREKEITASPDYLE

[3] = molecular target: recombinant mouse FGFR2b (mouse) (UniProt P21803); experiment: BLI, antibody on AHC2 sensor
Sequence of recombinant mouse FGFR2b (mouse) (P21803 22-377): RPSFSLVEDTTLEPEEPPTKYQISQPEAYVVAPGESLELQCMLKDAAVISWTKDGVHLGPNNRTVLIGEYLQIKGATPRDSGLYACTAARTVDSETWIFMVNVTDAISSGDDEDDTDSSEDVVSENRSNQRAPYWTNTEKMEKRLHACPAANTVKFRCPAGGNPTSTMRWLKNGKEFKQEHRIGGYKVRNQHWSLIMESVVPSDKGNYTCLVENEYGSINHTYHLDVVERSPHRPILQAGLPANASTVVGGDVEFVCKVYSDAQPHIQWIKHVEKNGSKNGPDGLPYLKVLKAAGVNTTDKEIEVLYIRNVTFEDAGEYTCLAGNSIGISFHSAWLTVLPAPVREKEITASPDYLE

[4] = molecular target: recombinant mouse FGFR2b (mouse) (UniProt P21803); experiment: ELISA, antibody 1ug/mL
FGFR1 (acro) = FGFR1 (acro) (UniProt P11362); experiment: ELISA, antibody 10 µg/mL
Sequence of FGFR1 (acro) (P11362 22-376): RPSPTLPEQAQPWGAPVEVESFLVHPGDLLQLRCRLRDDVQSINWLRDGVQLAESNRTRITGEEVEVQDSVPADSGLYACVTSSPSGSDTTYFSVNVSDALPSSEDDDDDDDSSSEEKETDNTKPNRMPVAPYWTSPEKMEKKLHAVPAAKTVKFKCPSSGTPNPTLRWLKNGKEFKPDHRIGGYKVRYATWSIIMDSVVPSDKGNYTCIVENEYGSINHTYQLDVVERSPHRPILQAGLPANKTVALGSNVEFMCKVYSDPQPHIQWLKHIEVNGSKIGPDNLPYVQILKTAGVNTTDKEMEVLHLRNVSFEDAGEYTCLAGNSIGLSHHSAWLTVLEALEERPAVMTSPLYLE

FGFR4 (acro) = molecular target: T1, FGFR4 (acro); experiment: ELISA, antibody 10 µg/mL

Binder	OD (450 nm) value [1]	OD (450 nm) value [2]	Kd [3] [nM]	koff [3] [s⁻¹]	kon [3] [M⁻¹ s⁻¹]	OD (450 nm) value [4]	OD (450 nm) value (FGFR1 (acro))	OD (450 nm) value (FGFR4 (acro))
3H9 scFv displayed on phage (scFv) scFv: EIQLQQSGAELVKPGASVKMSCKASGYTFSFYNMHWVKRTPGQGLEWIGLIYPDNGDTSYNQKFKGKATLTADTSSSTAYMQLSSLTSEDSAVYYCARGGLDYWGQGTTLTVSSGGGGSGGGGSGGGGSDIVLTQSPASLSVSVGETVTITCRASENIYSNLAWYQQKQGKSPQLLVYAATNLADGVPSRFSGSGSGTQYSLKINSLQSEDFGSYYCQHFWGTPYTFGGGTKLELK	2.22	0.073						
3D7 scFv-Fc (Fc fusion) QVQLQQSGAELVKPGASVKMSCKASGYTFSFYNMHWVKRTPGRGLEWIGLIYPDNGDTSYNQKFKGKATLTADTSSSTAYMQLSSLTSEDSAVYYCARGGLDYWGQGTSLTVSSGGGGSGGGGSGGGGSEIVLTQSPASLAVSLGQRATISCKASQSVDYDGDSYMNWYQQKPGQPPKLLIYGISNRFSGVPDRFSGSGSGTDFTLKISTIKPEDLGMYYCLQGTHQPYTFGGGTKLEIKESKYGPPCPPCPAPEAAGGPSVFLFPPKPKDTLMISRTPEVTCVVVDVSQEDPEVQFNWYVDGVEVHNAKTKPREEQFNSTYRVVSVLTVLHQDWLNGKEYKCKVSNKGLPSSIEKTISKAKGQPREPQVYTLPPSQEEMTKNQVSLTCLVKGFYPSDIAVEWESNGQPENNYKTTPPVLDSDGSFFLYSKLTVDKSRWQEGNVFSCSVMHEALHNHYTQKSLSLSLG			81.7	0.00238	29100	2.48	0.192	0.256
3A12 scFv displayed on phage (scFv) scFv: EVQLQQSGAELVKPGASVKMSCKASGYTFSFYNVHWVRQTPGQGLEWIGLIYPDNGDTSYNQKFKAKATLTADKSSSAAYMQLSSLTSEDSAVYYCARGGFDYWGQGTSLTVSSGGGGSGGGGSGGGGSDIVMTQSHKFMSTSVGDRVNITCKASQDVSTAVAWYQQKPGQSPKLLIYSASYRYSGVPDRFTGSGSGTDFTFTISSVQAEDLAVYYCQQHYSTPYTFGGGTKLEMK	2.41	0.1						
3G10 scFv-Fc (Fc fusion) EVQLQQSGPELVKPGASVKMSCKASGYTFATYNMHWVKQTTGQGLEWIGAIYPDNGDTFYNRKFKDKATLTADKSSTTAYMQLSSLTSEDSAVYYCARGDFAYWGQGTLVTVSAGGGGSGGGGSGGGGSDVLMTQSPASLSASVGETVTITCGASENIYGALNWYQRKQGKSPQLLIYGATNLADGMSSRFSGSGSGRQYSLKISSLHPDDVATYYCQNVLSTPYTFGGGTKLEMKESKYGPPCPPCPAPEAAGGPSVFLFPPKPKDTLMISRTPEVTCVVVDVSQEDPEVQFNWYVDGVEVHNAKTKPREEQFNSTYRVVSVLTVLHQDWLNGKEYKCKVSNKGLPSSIEKTISKAKGQPREPQVYTLPPSQEEMTKNQVSLTCLVKGFYPSDIAVEWESNGQPENNYKTTPPVLDSDGSFFLYSKLTVDKSRWQEGNVFSCSVMHEALHNHYTQKSLSLSLG			41.9	0.00195	46600	3	0.083	0.175
1C10 scFv displayed on phage (scFv) scFv: QVQLQQSGAELVKPGASVKMSCKASGYTFRYYNMHWVKRTPGQGLEWIGLIYPDNGDTSYNQKFKGKATLTADTSSSTAYMQLSSLTSEDSAVYYCARGGLDYWGQGTSLTVSSGGGGSGGGGSGGGGSDIVMTQSPASLSASVGETVTITCRASGNIHNYLAWYQQKQGKSPQLLVYNAKTLADGVPSRFSGSGSGTQYSLKINSLQPEDFGSYYCQHFWSTPYTFGGGTKLEMK	2.55	0.068						
